Key:
[1] = target: 2AT-L, covalently stabilized triangular trimer composed of three Aβ17-36 β-hairpin peptides (2AM-LCC); experiment: crystal structure; X-ray crystallographic structure of 2AT-L at 1.8 Å; assembly seen in the crystal lattice
[2] = target: 2AT-L, covalently stabilized triangular trimer composed of three Aβ17-36 β-hairpin peptides (2AM-LCC); experiment: SDS-PAGE; silver stained; Tris buffer at pH 6.8 with 2% (w/v) SDS; 5.0, 2.5, 1.25 and 0.6 μg of 2AT-L or 2AM-L in each lane
SDS-PAGE = format: physicochemical; settings: Aβ42, 16.5% Tris-Tricine gel, 0.25–0.016 mM, 10 μL per lane
[3] = ThT aggregation assay of Aβ42; format: physicochemical; settings: 6.25 μM Aβ42 in PBS pH 7.4, 10 μM ThT, 25 °C, quiescent; ex 440 nm, em 485 nm
Experimental: Figure 3 In vitro characterization of pAb2AT-L with 2AT-L and 2AM-L and Aβ42. (A) Indirect ELISA of pAb2AT-L against 2AT-L, 2AM-L, and BSA. (B) Western blot analysis of pAb2AT-L against a concentration gradient of 2AT-L. SDS-PAGE was performed on a 16.5% Tris-Tricine gel (Bio-Rad); 10 μL was loaded in each lane. (C) Indirect ELISA of pAb2AT-L and 6E10 against Aβ42. (D and E) Western blot analysis of pAb2AT-L (D) and 6E10 (E) against a concentration gradient of Aβ42. SDS-PAGE was performed on a 16.5% Tris-Tricine gel (Bio-Rad); 10 μL was loaded in each lane. (F and G) Dot blot analysis of pAb2AT-L (F) and 4G8 (G) against 6.25 μM Aβ42 aggregated over time in PBS. A 1 μL portion of the Aβ42 solution was spotted in triplicate on 0.2 μm nitrocellulose membranes every 30 min for 5 h and then at 96 h. (H and I) Average integrated spot density from the dot blots in F and G. Integrated density for each spot was determined using ImageJ. (J and K) Change in integrated spot density from the 0-h time point. (L) ThT aggregation assay of 6.25 μM Aβ42. The ThT assay was performed at 25 °C under quiescent conditions in PBS (10 mM Na2HPO4, 1.8 mM KH2PO4, 137 mM NaCl, 2.7 mM KCl) at pH 7.4 containing 10 μM ThT. ThT fluorescence was monitored at 440 nm excitation and 485 nm emission. […]

cells = settings: cited from earlier work
Excerpt: Like oligomers of full-length Aβ, 2AT-L is toxic toward cells in culture, eliciting toxicity by interacting with the cells and promoting membrane disruption and release of LDH, depleting ATP, and activating caspase-3/7-mediated apoptosis.

[4] = tested on: Aβ protofibrils in brain and cerebrospinal fluid; settings: Alzheimer's disease transgenic mice; cited from earlier work
Excerpt: Antibodies that target monomeric, oligomeric, and fibrillar forms of the β-amyloid peptide (Aβ) are valuable tools for Alzheimer’s disease research and have emerged as Alzheimer’s disease therapies.[4],[5] […] These antibodies act by binding Aβ aggregates and facilitating their clearance from the brain, mitigating both the direct and downstream damaging eff ...

Aβ and its aggregates = settings: cited from earlier work
Excerpt: The 6E10 and 4G8 monoclonal antibodies—among the most extensively used Aβ antibodies in Alzheimer’s disease research—were generated by immunizing mice with a peptide fragment that encompassed the N-terminal half of Aβ (Aβ1–24).[58],[59]

Molecule: 2AT-L, covalently stabilized triangular trimer composed of three Aβ17-36 β-hairpin peptides (2AM-LCC) (complex)
- stoichiometry N (copies of 2AT-L) [1]: 4
- stoichiometry N (copies of 2AT-L) [2]: 4

Molecule: Aβ42: 42-amino-acid alloform of Aβ
- predominant oligomers on SDS-PAGE (SDS-PAGE): migrate at a molecular weight consistent with a trimer and tetramer
- time at which ThT-reactive aggregates begin to form [3]: 1 h
- time at which ThT-reactive aggregates plateau [3]: 1.75 h

Molecule: full-length Aβ: full-length β-amyloid peptide
- ATP depletion by full-length Aβ (cells): ATP depletion
- LDH release by full-length Aβ (cells): promotes LDH release
- caspase-3/7 activation by full-length Aβ (cells): caspase-3/7 activation

B1: Lecanemab: anti-Aβ antibody drug (antibody, chains of the INN, looked up, V domains shown)
VH: EVQLVESGGGLVQPGGSLRLSCSASGFTFSSFGMHWVRQAPGKGLEWVAYISSGSSTIYYGDTVKGRFTISRDNAKNSLFLQMSSLRAEDTAVYYCAREGGYYYGRSYYTMDYWGQGTTVTVSS
VL: DVVMTQSPLSLPVTPGAPASISCRSSQSIVHSNGNTYLEWYLQKPGQSPKLLIYKVSNRFSGVPDRFSGSGSGTDFTLRISRVEAEDVGIYYCFQGSHVPPTFGPGTKLEIK
- Aβ protofibrils in brain and cerebrospinal fluid [4]: reduced Aβ protofibrils in the brain and cerebrospinal fluid
- target selectivity of Lecanemab (Aβ and its aggregates): selectively targets Aβ protofibrils

B2: Donanemab: anti-Aβ antibody drug (antibody, chains of the INN, looked up, V domains shown)
VH: QVQLVQSGAEVKKPGSSVKVSCKASGYDFTRYYINWVRQAPGQGLEWMGWINPGSGNTKYNEKFKGRVTITADESTSTAYMELSSLRSEDTAVYYCAREGITVYWGQGTTVTVSS
VL: DIVMTQTPLSLSVTPGQPASISCKSSQSLLYSRGKTYLNWLLQKPGQSPQLLIYAVSKLDSGVPDRFSGSGSGTDFTLKISRVEAEDVGVYYCVQGTHYPFTFGQGTKLEIK
- target of Donanemab (Aβ and its aggregates): targets N-terminally pyroglutamated Aβ that is aggregated in Aβ plaques

— paper PMC10823522, “Antibodies Raised Against an Aβ Oligomer Mimic Recognize Pathological Features in Alzheimer’s Disease and Associated Amyloid-Disease Brain Tissue” (ACS Central Science, 2023)
